The record followed here is paper PMC8688572 (The Journal of Biological Chemistry, 2021).

This data set concerns the molecule itself. As to the kind of experiment: negative stain electron microscopy.

B1: zebrafish Impdh1a (544) (enzyme)
chain: not shown
On to B1, for which the binding result is reported as “binds”.
